Paper PMC3066550

How the values were obtained:
Test in all cases: co-IP
[1] = molecular target: LANADBD R873A (Kaposi's sarcoma-associated herpesvirus (KSHV; human herpesvirus 8))
[2] = molecular target: LANADBD K871A (Kaposi's sarcoma-associated herpesvirus (KSHV; human herpesvirus 8))
[3] = molecular target: LANADBD LSQ912AAA (Kaposi's sarcoma-associated herpesvirus (KSHV; human herpesvirus 8))
[4] = molecular target: LANADBD SKK953AAA (Kaposi's sarcoma-associated herpesvirus (KSHV; human herpesvirus 8))
[5] = molecular target: LANADBD KDT950AAA (Kaposi's sarcoma-associated herpesvirus (KSHV; human herpesvirus 8))
[6] = molecular target: LANADBD WE963AA (Kaposi's sarcoma-associated herpesvirus (KSHV; human herpesvirus 8))
[7] = molecular target: LANADBD HIF876AAA (Kaposi's sarcoma-associated herpesvirus (KSHV; human herpesvirus 8))
[8] = molecular target: LANADBD YGL907AAA (Kaposi's sarcoma-associated herpesvirus (KSHV; human herpesvirus 8))
[9] = molecular target: LANADBD YR879AA (Kaposi's sarcoma-associated herpesvirus (KSHV; human herpesvirus 8))

In the case of “wild-type KSHV LANA DNA-binding domain (LANADBD, aa 775-1003) (domain or fragment)”, the dimerization activity by IP, percent of wt [1] is reported as 135 % of wt, the dimerization activity by IP, percent of wt [2] is reported as 74 % of wt and the dimerization activity by IP, percent of wt [3] is reported as 248 % of wt. The dimerization activity by IP, percent of wt [4] was 64 % of wt, the dimerization activity by IP, percent of wt [5] was 74 % of wt and the dimerization activity by IP, percent of wt [6] was 29 % of wt. For the same substance, the dimerization activity by IP, percent of wt [7] was 127 % of wt, the dimerization activity by IP, percent of wt [8] was 73 % of wt and the dimerization activity by IP, percent of wt [9] was 73 % of wt.
